First the molecules themselves.
T1: active human C1s (CompTech A104 C1s Enzyme) (human, UniProt P09871 16-688)
T1 construct: also called human active C1s; active C1s protein
T1 sequence (looked up): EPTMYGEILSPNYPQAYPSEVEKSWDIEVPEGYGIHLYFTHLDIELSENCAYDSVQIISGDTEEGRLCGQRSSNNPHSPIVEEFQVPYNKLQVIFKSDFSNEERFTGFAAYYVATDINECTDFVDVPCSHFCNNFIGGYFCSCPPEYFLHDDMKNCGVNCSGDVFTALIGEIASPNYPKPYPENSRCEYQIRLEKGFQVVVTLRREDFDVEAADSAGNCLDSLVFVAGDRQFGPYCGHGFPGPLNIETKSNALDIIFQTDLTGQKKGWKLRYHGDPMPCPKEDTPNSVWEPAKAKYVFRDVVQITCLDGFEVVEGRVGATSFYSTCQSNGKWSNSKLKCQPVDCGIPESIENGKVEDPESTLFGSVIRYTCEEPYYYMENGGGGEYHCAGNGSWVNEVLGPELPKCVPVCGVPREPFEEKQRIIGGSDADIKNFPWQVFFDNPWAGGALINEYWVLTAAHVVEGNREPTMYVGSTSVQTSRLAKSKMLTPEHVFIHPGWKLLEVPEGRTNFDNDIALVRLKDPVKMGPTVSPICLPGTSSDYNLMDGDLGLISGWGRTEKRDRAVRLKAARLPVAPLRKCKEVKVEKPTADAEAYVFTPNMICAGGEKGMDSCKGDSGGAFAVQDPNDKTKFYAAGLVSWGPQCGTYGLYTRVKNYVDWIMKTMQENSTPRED

T2: human C1s proenzyme (CompTech A103) (human, UniProt P09871 16-688)
T2 construct: also called proenzyme human C1s (native C1s)
T2 sequence (looked up): T1 sequence (looked up)

T3: human C1s mutant M15 (S360N) (human, UniProt P09871 16-688)
T3 construct: The entry is the mutant itself
T3 sequence: T1 sequence (looked up) with S360N

B1: Anti-C1s antibody hz2-7(H1L2) (antibody, V domains shown)
VH: EVQLLESGGGLVQPGGSLRLSCAASGFTFSNYFMNWVRQAPGKGLEWVSEIRLKFTNYATHYADSVKGRFTISRDDSKSTLYLQMNSLRAEDTAVYYCTRDYGSRNGYFDYWGQGTLVTVSS
VL: DIVMTQTPLSLPVTPGEPASISCRSSKSLLHSNGNTFLYWFLQKPGQSPQLLIYRMSNLASGVPDRFSGSGSGTDFTLKISRVEAEDVGVYYCMQHLEYPYTFGGGTKLEIKR
notes: Humanized, human IgG1 / kappa; also called hz2-7(1L2)
B2: Anti-C1s antibody hz2-8 (H1L2 G80A/T82A) (antibody, V domains shown)
VH: QVQLVQSGAEVKKPGASVKVSCKASGFNIKEYYMHWVRQAPEQGLEWMGWIDPENADAIYAQKFQGRVTITADTSTNTAYMELSSLRSEDTAVYYCARSRLFFAYWGQGTLVTVSS
VL: DIQMTQSPKSLSASVGDRVTITCRASQDVRTALDWYQQKPGQSPKLLIYSASYRYSGVPSRFSGSGSGTDFTLTISSLQPEDFATYYCQQQYTTPYTFGQGTKLEIKR
notes: Humanized variant with G80A and T82A in HC CDR2 (already in the entry), human IgG1 / kappa
B3: Anti-C1s antibody 2-7 (antibody, human IgG1, kappa, V domains shown)
VH: EVKLEESGGGLVPPGGSMKLSCVASGFTFSNYFMNWVRQSPEKGLEWVAEIRLKFTNYATHYAESVEGRFTISRDDSKSSVYLQMNNLRAEDTGIYYCTRDYGSRNGYFDYWGQGTTLTVSS
VL: DIVMTQAAPSVPVTPGESVSISCRSSKSLLHSNGNTFLYWFLQRPGQSPQLLIYRMSNLASGVPDRFSGSGSGTAFTLRVSRVEAEDVGIYYCMQHLEYPYTFGGGTKLEIKT
notes: the HC/LC entries may hold it too; also called clone 2-7
B4: Anti-C1s antibody 2-8 (antibody, V domains shown)
VH: EVQLQQSGAELVRPGALVKLSCKASGFNIKEYYMHWVKQRPEQGLEWIGWIDPENGDTIYDPKFQGKASITADTSSNTAYLQLSSLTSEDTAVYYCARSRLFFAYWGQGTLVTVSA
VL: DIVMTQSHKFMSTSVGDRVSFTCKASQDVRTAVDWYQQKPGQSPKLLIYSASYRYTGVPDRFTGTGSGTDFTFTISSVQAEDLAVYFCQQQYTTPYTFGGGTKLEIKT
notes: the HC/LC entries may hold it too; also called clone 2-8
B5: Anti-C1s antibody hz2-8 (H1L2 G80A) (antibody, V domains shown)
VH: B2 VH with A58T
VL: B2 VL
notes: Humanized variant with G80A in HC CDR2 (already in the entry), human IgG1 / kappa

Substitutions are numbered along the chain they refer to. Names may count otherwise.

The target of one experiment is T1, active human C1s (CompTech A104 C1s …). The experiment is described as follows: ELISA, C1s coated on plate. Here is the method:
(§1) ELISA was carried out by first coating 96-well plates with 200 ng/well of human active C1s (CompTech A104, FIG. 3F) or human C1s proenzyme (CompTech A103, FIG. 3G) proteins overnight. The next morning, plates were blocked with SuperBlock T20 blocking buffer (Thermo Fisher Scientific Inc., Catalog No. 37536) for 1 h with gentle shaking. Then, various concentrations of anti-C1s antibodies diluted in SuperBlock T20 blocking buffer were added to the plates and incubated for 1 h with gentle shaking. Human IgG1 (BioXCell BP0297) was used as a negative control. The plates were washed before incubating with HRP conjugated secondary antibodies diluted in SuperBlock T20 blocking buffer (goat anti-human IgG antibody, HRP conjugate (Millipore AP309P)) for 1 h with gentle shaking. At last, the plates were washed and color developed with ELISA liquid substrate (Sigma-Aldrich), followed by stopping the reaction with addition of the same volume of […] 1M H₂SO₄. Bound antibody was measured by absorbance at OD₄₅₀ₙₘ.
(§2) The EC₅₀ for each antibody and target combination was determined as follows: for antibody 2-7, EC₅₀ for human active C1s is 12 ng/ml and EC₅₀ for human C1s proenzyme is 9 ng/ml; for antibody 2-8, EC₅₀ for human active C1s is 12 ng/ml and EC₅₀ for human C1s proenzyme is 10 ng/ml; for variant hz2-7(1L2), EC₅₀ for human active C1s is 13 ng/ml and EC₅₀ for human C1s proenzyme is 12 ng/ml; and for variant hz2-8(H1L2 G80A/T82A), EC₅₀ for human active C1s is 10 ng/ml and EC₅₀ for human C1s proenzyme is 8 ng/ml.
One may read the EC50 as the concentration giving half of the maximal effect. As to B1, the EC50 was 0.013 µg/mL.
Still for that read-out and setting: the result for B2 reads 0.01 µg/mL; that for B3, 0.012 µg/mL; that for B4, 0.012 µg/mL.

The next experiment concerns the target T2, human C1s proenzyme (CompTech A103). The experiment is described as follows: ELISA, C1s coated on plate. Here is the method: as §1, §2
(In general: An ELISA detects its analyte on a solid surface through an enzyme-linked reagent.)
For B1, the EC50 is 12 ng/mL.
Take B2: the EC50 came out at 8 ng/mL.
As to B3, the EC50 was found to be 9 ng/mL.
As to B4, the EC50 is 10 ng/mL.

Another experiment concerns the target T3, human C1s mutant M15 (S360N). The experiment is described as follows: ELISA, plate coated with human C1s mutant M15: S360N, OD450nm. Here is the method:
ELISA was carried out by first coating 96-well plates with 200 ng/well of full-length or truncated C1s proteins overnight. The next morning, plates were blocked with SuperBlock T20 blocking buffer (Thermo Scientific 37536) for 1 h with gentle shaking. Then, various concentrations of anti-C1s antibodies diluted in SuperBlock T20 blocking buffer were added to the plates and incubated for 1 h with gentle shaking. Mouse IgG (Sigma-Aldrich 15381) and human IgG1 (BioXCell BP0297) were used as negative controls. The plates were washed before incubating with HRP conjugated secondary antibodies diluted in SuperBlock T20 blocking buffer (goat anti-mouse IgG (H+L) cross-adsorbed secondary antibody HRP (Invitrogen G-21040) or goat anti-human IgG antibody, HRP conjugate (Millipore AP309P)) for 1 h with gentle shaking. At last, the plates were washed and color developed with ELISA liquid HRP substrate (Sigma-Aldrich), followed by stopping the reaction with addition of 1M H₂SO₄ in the same volume as the ELISA liquid substrate. Bound antibody was measured by absorbance at OD₄₅₀ₙₘ.
Binding of anti-C1s antibodies to mutants M1-M20 of human C1s was measured by ELISA as described in Example 4, and results are shown in FIGS. 6B-6U. All anti-C1s humanized variants including hz2-7(H1L2), hz2-8(H1L2 G80A) and hz2-8(H1L2 G80A/T82A) maintained strong binding properties to the majority (16 out of 20) of C1s mutants including M1 (FIG. 6B), M2 (FIG. 6C), M3 (FIG. 6D). M4 (FIG. 6E), M7 (FIG. 6H), M8 (FIG. 6I), M10 (FIG. 6K), M11 (FIG. 6L), M12 (FIG. 6M), M13 (FIG. 6N), M15 (FIG. 6P), M16 (FIG. 6Q), M17 (FIG. 6R), M18 (FIG. 6S), M19 (FIG. 6T) and M20 (FIG. 6U).
B1 had an EC50 of 3 ng/mL.
The same measure, in the same setting: the same measure for B5: 4 ng/mL; for B2: 5 ng/mL.
